Patent US20050182242A1, “Global analysis of protein activities using proteome chips” (priority 2001, published 2005)

B1: MUB1: yeast GST-HisX6 fusion protein on proteome chip (protein, UniProt Q03162 1-620, looked up)
MYND-type zinc finger protein …: MRDSNHRSLTSNKPIVTITSTVYDRRALDINSSIPLINSLNYLTYLTSNSSKVRETVANDGALERLVSILRSCHLSLFELLDLDLENFNEHENIKDLWKEKRLALCAWKWTLTFQCLVLTGTRGTEQIRKKVVMSGVLSVLVTVLDNYLLYHKNYDFIKDQTMTFDFKGITTETMYKFMRKDENETYQQYIEFITGQDKLKLSTDKNFLNERLVAPSMTIPTDFSDIWGRFADLASNFEPDQERHDDDIDIDSEVESENFDAHKNFFSQPDINRPTISTPREFFLGRIVPKQDDVIWSLQLLAFVSKYTYMKSTLQNVELVESLSFRSMAYKIKQRISEENDLEEQERDVTVKLSSLYPYLSKNPENNSKVKALDTSKMDPFFKELEELSNRCQQEEQNEICNNHCPVLNLFERYRVPKPSDDNAYGKDKERINLRKKISDNFERRWSYDKMKKELTNIVYKNKVLTNVVNIFPLVEKYTVSAENTHDVIYWSSVIMRNSCRKNEILGVRQCANFSCGKWEDFPRQFAKCRRCKRTKYCSRKCQLKAWGYHRYWCHEVGSSHMRSTNTTTGVNTPNEPSSLNATATTAADVSNSTSTFTPNISTTVPDEISNRDENSIPE
modifications: GST-HisX6 tag
notes: yeast GST-HisX6 fusion protein on proteome chip
B2: VAC7: yeast GST-HisX6 fusion protein on proteome chip (protein, UniProt P53950 1-1165, looked up)
Vacuolar segregation protein 7: MTEEDRKLTVETETVEAPVANNLLLSNNSNVVAPNPSIPSASTSTSPLHREIVDDSVATANTTSNVVQHNLPTIDNNLMDSDATSHNQDHWHSDINRAGTSMSTSDIPTDLHLEHIGSVSSTNNNSNNALINHNPLSSHLSNPSSSLRNKKSSLLVASNPAFASDVELSKKKPAVISNNMPTSNIALYQTARSANIHGPSSTSASKAFRKASAFSNNTAPSTSNNIGSNTPPAPLLPLPSLSQQNKPKIIERPTMHVTNSREILLGENLLDDTKAKNAPANSTTHDNGPVANDGLRIPNHSNADDNENNNKMKKNKNINSGKNERNDDTSKICTTSTKTAPSTAPLGSTDNTQALTASVSSSNADNHNNNKKKTSSNNNGNNSNSASNKTNADIKNSNADLSASTSNNNAINDDSHESNSEKPTKADFFAARLATAVGENEISDSEETFVYESAANSTKNLIFPDSSSQQQQQQQQPPKQQQQQQNHGITSKISAPLLNNNKKLLSRLKNSRHISTGAILNNTIATISTNPNLNSNVMQNNNNLMSGHNHLDELSSIKQEPPHQLQQQQPPMDVQSVDSYTSDNPDSNVIAKSPDKRSSLVSLSKVSPHLLSSTSSNGNTISCPNVATNSQELEPNNDISTKKSLSNSTLRHSSANRNSNYGDNKRPLRTTVSKIFDSNPNGAPLRRYSGVPDHVNLEDYIEQPHNYPTMQNSVKKDEFYNSRNNKFPHGLNFYGDNNVIEEENNGDSSNVNRPQHTNLQHEFIPEDNESDENDIHSMFYYNHKNDLETKPLISDYGEDEDVDDYDRPNATFNSYYGSASNTHELPLHGRMPSRSNNDYYDFMVGNNTGNNNQLNEYTPLRMKRGQRHLSRTNNSIMNGSIHMNGNDDVTHSNINNNDIVGYSPHNFYSRKSPFVKVKNFLYLAFVISSLLMTGFILGFLLATNKELQDVDVVVMDNVISSSDELIFDITVSAFNPGFFSISVSQVDLDIFAKSSYLKCDSNGDCTVMEQERKILQITTNLSLVEESANNDISGGNIETVLLGTAKKLETPLKFQGGAFNRNYDVSVSSVKLLSPGSREAKHENDDDDDDDGDDGDDENNTNERQYKSKPNARDDKEDDTKKWKLLIKHDYELIVRGSMKYEVPFFNTQKSTAIQKDSMVHPGKK
modifications: GST-His6 tag
notes: as for B1
B3: BUD32: yeast GST-HisX6 fusion protein on proteome chip (protein, UniProt P53323 1-261, looked up)
EKC/KEOPS complex subunit …: MTQEFIDKVSSYLTPDVDIAPISQGAEAIVFTTTTHPYLPRAKDSHQKYIIKYRPPKRYRHPQIDQALTKHRTLNESRLLAKLYLIPGLCVPQLIACDPYNGFIWLEFLGEDLPGGHGFSNLKNFLWMHDQDPYSDLVATTLRKVGRQIGLLHWNDYCHGDLTSSNIVLVRDGARWTPHLIDFGLGSVSNLVEDKGVDLYVLERAILSTHSKHAEKYNAWIMEGFEEVYREQGAKGAKKLKEVTKRFEEVRLRGRKRSMLG
modifications: GST-His6 fusion tag
notes: as for B1
B4: YEL064C: yeast GST-HisX6 fusion protein on proteome chip (protein, UniProt P39981 1-480, looked up)
Vacuolar amino acid …: MSELGEYSKLENKELRTEFELTNFPFPGTTDNDSDDGSQGQNSLNIITPDMDDTLVNDVLRENDKKSSMRMAFMNLANSILGAGIITQPFAIKNAGILGGLLSYVALGFIVDWTLRLIVINLTLAGKRTYQGTVEHVMGKKGKLLILFTNGLFAFGGCIGYCIIIGDTIPHVLRAIFSQNDGNVHFWLRRNVIIVMVTTFISFPLSMKRNIEALSKASFLAVISMIIIVLTVVIRGPMLPYDWKGHSLKLSDFFMKATIFRSLSVISFALVCHHNTSFIFFSMRNRSVAKFTRLTHISIIISVICCALMGYSGFAVFKEKTKGNVLNSFPGTDTAINIARLCFGFNMLTTFPMEIFVLRDVVGNLLHECNLIKNYDEHTQLSGKQHVVITSSLVFITMGISLTTCNLGALFELIGATTASTMAYILPPYTNLLLTSKKKSWKERLPFYLCICFGFMIMIISSTQTIIDAVNGSDGQHCQI
modifications: GST-His6 tag
notes: as for B1
B5: CAK1: yeast GST-HisX6 fusion protein on proteome chip (protein, UniProt P43568 1-368, looked up)
Serine/threonine-protein …: MKLDSIDITHCQLVKSTRTARIYRSDTYAIKCLALDFDIPPHNAKFEVSILNKLGNKCKHILPLLESKATDNNDLLLLFPFEEMNLYEFMQMHYKRDRRKKNPYYDLLNPSIPIVADPPVQKYTNQLDVNRYSLSFFRQMVEGIAFLHENKIIHRDIKPQNIMLTNNTSTVSPKLYIIDFGISYDMANNSQTSAEPMDSKVTDISTGIYKAPEVLFGVKCYDGGVDVWSLLIIISQWFQRETSRMGHVPAMIDDGSDDMNSDGSDFRLICSIFEKLGIPSIQKWEEVAQHGSVDAFVGMFGADGDGKYVLDQEKDVQISIVERNMPRLDEIADVKVKQKFINCILGMVSFSPNERWSCQRILQELEKP
modifications: GST-HisX6 tag
notes: as for B1
B6: SPO1: yeast GST-HisX6 fusion protein on proteome chip (protein, UniProt P53541 18-631, looked up)
Putative meiotic …: TAPFQVQCPSSPLIREAKHELCPEETLYLKKKKIKTKNKLIQFLKSLTEAKFSSKFYKRVLKDPPKIGIAISGGGYRSMLVGTGFISQMNDYGLFEYSDYIAGLSGGSWILMDLVVQNFEVKSLLQEWDLEEDLLLGIPEFDISEEEIVTNAKKEYNDNDLKMKKRQGGSLITSSSNFYEQIEEIMNSIEEIPEDYMITKRNLNPLARLKKIFFPNNTFTGTDAKIETFKKVLDFYKSLHLKIKPKKMEGFQISFTDYWGKAIVQRLKKNFDDDPNHSFSFSKLVNSSKKFKECSVPIPIFVANCKNGLLSNVIFEFTPFEFGSWENILRLFVKLPYLGSKIVSGKAEKCINNFDDLGFITATSSSIFNNVLIFIWNLASQSSREAMKALNMVMGIFGLGKEEIFSISKDSSRLETDYAVYQPNPFYLYPEKDNVLTNKNHLYLVDGGEDGENIPLRTLVIPERELDVIFVLDSSSDIDNYPNGSKLKRIFEKLDEENVHYQFPNNVKTFTHPIVIGCNATKRTGHDSFLPIIIYHANANHGNASNTSTFKITYNQSEVSSMLPTGRGVFSNDYDLYYKNCLGCILTKRTMDRLPRKKKFSPFCLQCFKDYCYS
modifications: GST-His6 tag
notes: as for B1
B7: SDS22: yeast GST-HisX6 fusion protein on proteome chip (protein, UniProt P36047 1-338, looked up)
Protein phosphatase 1 …: MDKNSVNKDSEEKDERHKIEVVDDTNPDFITADSELTQDLPDDVEVIDLVHLKIKSLEDLNLYRFKNLKQLCLRQNLIESISEVEVLPHDKIVDLDFYDNKIKHISSNVNKLTKLTSLDLSFNKIKHIKNLENLTDLENLYFVQNSISKIENLSTLKSLKNLELGGNKVHSIEPDSFEGLSNLEEIWLGKNSIPRLINLHPLKNLKILSIQSNKLKKIENLEELTNLEELYLSHNFITKIEGLEKNLKLTTLDVTSNKITSLENLNHLSNLTDIWASFNKIDQSFESLGENLSALSRLETIYLEGNPIQLENKTSYRRKLTMNLPPSLQKIDATYIRG
modifications: GST-HisX6 tag
notes: as for B1

Legend:
Conditions in all cases: liposome binding signal on yeast proteome chip, Cy3-streptavidin detection
[1] = test system: phosphatidylcholine (PC) liposomes; assay: Yeast proteome chip probed with PC liposomes
How it was run: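 Binding detected by fluorescent streptavidin (Cy3 or Cy5, >30 min in the dark at RT) recognizing biotin-DHPE (1% w/w) in PC liposomes, which carried 5% (w/w) of the named phosphoinositide unless PC-only. Liposomes, made by sonication in TBS, were applied to blocked chips for 1 h at RT, then washed in PBS.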

PI(3,4,5)P3 liposomes = assay: Yeast proteome chip probed with PI(3,4,5)P3 liposomes
PI(3,4)P2 liposomes = assay: Yeast proteome chip probed with PI(3,4)P2 liposomes
PI(3)P liposomes = assay: Yeast proteome chip probed with PI(3)P liposomes
PI(4,5)P2 liposomes = assay: Yeast proteome chip probed with PI(4,5)P2 liposomes
PI(4)P liposomes = assay: Yeast proteome chip probed with PI(4)P liposomes

Molecule | PC [1] | PI(3, 4, 5)P3 (PI(3,4,5)P3 liposomes) | PI(3, 4)P2 (PI(3,4)P2 liposomes) | PI(3)P (PI(3)P liposomes) | PI(4, 5)P2 (PI(4,5)P2 liposomes) | PI(4)P (PI(4)P liposomes)
B1 | 2.64 | 9.79 | 9.89 | −6.00 | −4.79 | 19.38
B2 | −1.17 | 13.16 | 19.62 | 28.75 | 21.99 | 28.74
B3 | 621.00 | 108.67 | 249.28 | 318.00 | 282.63 | 666.29
B4 | 5.28 | −0.90 | −3.14 | −5.00 | 6.53 | −3.92
B5 | 854.02 | 269.10 | 245.20 | 99.50 | 233.85 | 1431.44
B6 | 5.58 | −9.22 | 18.99 | −6.50 | 14.37 | 0.44
B7 | −4.70 | −2.14 | 4.71 | 2.00 | 14.15 | 13.28
